# Assay results: PMC5700061
# Assays:
# [1] = molecular target: Furin-resistant mouse proBrain-Derived Neurotrophic Factor (proBDNF) (mouse) (UniProt P21237); assay: SPR; MX96 (IBIS); NGF, proNGF and proBDNF amine-coupled to a P-COOH SensEye sensor, s-sortilin flowed over as analyte; 25 mM MES pH 5.0, 150 mM NaCl, 0.005% Tween 20, 25 °C; equilibrium binding, 1:1 Langmuir model
# [2] = molecular target: Mouse Nerve Growth Factor (NGF) (mouse) (UniProt P01139); assay: as above
# [3] = molecular target: Mouse sortilin luminal segment (s-sortilin), wild type, native glycans (mouse); assay: SEC-MALS; Superdex 200 10/300 GL, 10 µl of 10 mg mL^-1 injected, 0.5 ml min^-1; 25 mM MES pH 5.0, 150 mM NaCl
# [4] = molecular target: Furin-resistant mouse proBrain-Derived Neurotrophic Factor (proBDNF) (mouse) (UniProt P21237); assay: SPR; equilibrium binding, IBIS MX96; NGF, proNGF and proBDNF amine-coupled, s-sortilin as analyte; 25 mM MES pH 5.0, 150 mM NaCl, 0.005% Tween 20, 25 °C; 1:1 Langmuir model
# [5] = molecular target: Furin-resistant mouse proBrain-Derived Neurotrophic Factor (proBDNF) (mouse) (UniProt P21237); assay: SPR; equilibrium binding, IBIS MX96; NGF, proNGF and proBDNF amine-coupled, s-sortilin as analyte; 25 mM HEPES pH 7.4, 150 mM NaCl, 0.005% Tween 20, 25 °C; 1:1 Langmuir model
# Mouse Nerve Growth Factor (NGF) (mouse), sequence (P01139 122-241): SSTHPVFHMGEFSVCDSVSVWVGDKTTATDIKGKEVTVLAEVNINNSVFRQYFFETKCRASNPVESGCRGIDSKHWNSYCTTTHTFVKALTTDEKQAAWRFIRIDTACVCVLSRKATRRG
substance,measurement,setting,value
"Mouse s-sortilin A464E, native glycans (domain or fragment)",Kd,[1],2.28 µM
same,Kd,[2],0.73 µM
"Mouse sortilin luminal segment (s-sortilin), wild type, native glycans (domain or fragment)",stoichiometry N,[3],2
s-sortilin A464E (dimerization interface mutant of the mouse sortilin luminal segment) (domain or fragment),fold reduction of binding at pH 5.0 against pH 7.4,[4],4 fold
same,Kd,[5],0.4 µM
